Changes are numbered by the printed parent chain.
B1: GLS3000 G89R (antibody, name in Kabat numbering, V domains shown)
VH: QVQLVESGGGVVQPGRSLRLSCAASGFTFSNAWMHWVRQAPGKGLEWVAQIKAKSNNYATYYAESVKGRFTISRDDSKNSLYLQMNSLKTEDTAVYYCRYVHYGAYYGVDAWGQGTTVTVSS
VL: DIVMTQSPLSLPVTPGEPASISCRSSQSLVHSNRNTYLHWYQQKPGQAPRLLIYKVSNRFSGVPDRFSGSGSGTDFTLKISRVEAEDVGVYYCRQGTQVPYTFGQGTKLEIK
notes: one-arm format as m2
B2: GLS3000 G89Y (antibody, name in Kabat numbering, V domains shown)
VH: B1 VH
VL: B1 VL with R94Y
notes: one-arm format as m2
B3: GLS3000 H27dK (antibody, name in Kabat numbering, V domains shown)
VH: B1 VH
VL: B1 VL with H31K, R94G
notes: one-arm format as m2
B4: GLS3000 H27dI (antibody, name in Kabat numbering, V domains shown)
VH: B1 VH
VL: B1 VL with H31I, R94G
notes: one-arm format as m2
B5: GLS3000 G89V (antibody, name in Kabat numbering, V domains shown)
VH: B1 VH
VL: B1 VL with R94V
notes: one-arm format as m2
B6: GLS3000 H27dT (antibody, name in Kabat numbering, V domains shown)
VH: B1 VH
VL: B1 VL with H31T, R94G
notes: one-arm format as m2
B7: GLS3000 H27dD (antibody, name in Kabat numbering, V domains shown)
VH: B1 VH
VL: B1 VL with H31D, R94G
notes: one-arm format as m2
B8: GLS3000 H27dQ (antibody, name in Kabat numbering, V domains shown)
VH: B1 VH
VL: B1 VL with H31Q, R94G
notes: one-arm format as m2
B9: GLS3000 H27dF (antibody, name in Kabat numbering, V domains shown)
VH: B1 VH
VL: B1 VL with H31F, R94G
notes: one-arm format as m2
B10: GLS3000 G91E (antibody, name in Kabat numbering, V domains shown)
VH: B1 VH
VL: B1 VL with R94G, G96E
notes: one-arm format as m2
B11: GLS3000 G91A (antibody, name in Kabat numbering, V domains shown)
VH: B1 VH
VL: B1 VL with R94G, G96A
notes: one-arm format as m2
B12: GLS3000 G91Y (antibody, name in Kabat numbering, V domains shown)
VH: B1 VH
VL: B1 VL with R94G, G96Y
notes: one-arm format as m2
B13: GLS3000 G89W (antibody, name in Kabat numbering, V domains shown)
VH: B1 VH
VL: B1 VL with R94W
notes: one-arm format as m2
B14: GLS3000 H27dY (antibody, name in Kabat numbering, V domains shown)
VH: B1 VH
VL: B1 VL with H31Y, R94G
notes: one-arm format as m2
B15: GLS3000 H27dS (antibody, name in Kabat numbering, V domains shown)
VH: B1 VH
VL: B1 VL with H31S, R94G
notes: one-arm format as m2
B16: GLS3000 H27dE (antibody, name in Kabat numbering, V domains shown)
VH: B1 VH
VL: B1 VL with H31E, R94G
notes: one-arm format as m2
B17: GLS3000 G91T (antibody, name in Kabat numbering, V domains shown)
VH: B1 VH
VL: B1 VL with R94G, G96T
notes: one-arm format as m2
B18: GLS3000 G89T (antibody, name in Kabat numbering, V domains shown)
VH: B1 VH
VL: B1 VL with R94T
notes: one-arm format as m2
B19: GLS3000 G91P (antibody, name in Kabat numbering, V domains shown)
VH: B1 VH
VL: B1 VL with R94G, G96P
notes: one-arm format as m2
B20: GLS3000 H27dL (antibody, name in Kabat numbering, V domains shown)
VH: B1 VH
VL: B1 VL with H31L, R94G
notes: one-arm format as m2
B21: GLS3000 H34D (antibody, name in Kabat numbering, V domains shown)
VH: B1 VH
VL: B1 VL with H39D, R94G
notes: one-arm format as m2
B22: GLS3000 H27dG (antibody, name in Kabat numbering, V domains shown)
VH: B1 VH
VL: B1 VL with H31G, R94G
notes: one-arm format as m2
B23: GLS3000 H27dP (antibody, name in Kabat numbering, V domains shown)
VH: B1 VH
VL: B1 VL with H31P, R94G
notes: one-arm format as m2
B24: GLS3000 H27dV (antibody, name in Kabat numbering, V domains shown)
VH: B1 VH
VL: B1 VL with H31V, R94G
notes: one-arm format as m2
B25: GLS3000 G91S (antibody, name in Kabat numbering, V domains shown)
VH: B1 VH
VL: B1 VL with R94G, G96S
notes: one-arm format as m2
B26: GLS3000 H27dW (antibody, name in Kabat numbering, V domains shown)
VH: B1 VH
VL: B1 VL with H31W, R94G
notes: one-arm format as m2
B27: GLS3000 H34A (antibody, name in Kabat numbering, V domains shown)
VH: B1 VH
VL: B1 VL with H39A, R94G
notes: one-arm format as m2
B28: GLS3000 H27dR (antibody, name in Kabat numbering, V domains shown)
VH: B1 VH
VL: B1 VL with H31R, R94G
notes: one-arm format as m2
B29: GLS3000 H27dN (antibody, name in Kabat numbering, V domains shown)
VH: B1 VH
VL: B1 VL with H31N, R94G
notes: one-arm format as m2
B30: GLS3000 H27dA (antibody, name in Kabat numbering, V domains shown)
VH: B1 VH
VL: B1 VL with H31A, R94G
notes: one-arm format as m2
B31: GLS3000 G91D (antibody, name in Kabat numbering, V domains shown)
VH: B1 VH
VL: B1 VL with R94G, G96D
notes: one-arm format as m2

Target: CD3ε homodimer protein (human, UniProt P07766 23-126, limits assumed)
Assay: SPR, immobilized CD3ε homodimer;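 also: biacore T200 surface plasmon resonance at 25 °C, antibody variants flowed as analytes over amine-coupled CD3ε homodimer on a CM4 chip, variant binding amount divided by that of GLS3000 antibody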

Sequence of CD3ε homodimer protein (P07766 23-126 limits assumed): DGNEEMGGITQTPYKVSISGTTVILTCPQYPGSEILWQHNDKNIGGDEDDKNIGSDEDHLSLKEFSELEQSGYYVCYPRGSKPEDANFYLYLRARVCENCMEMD

Binder	ratio of amounts bound (vs GLS3000)
B1	0.19
B2	1.19
B3	0.29
B4	0.26
B5	1.63
B6	0.29
B7	0.22
B8	0.25
B9	0.63
B10	0.16
B11	0.27
B12	0.17
B13	0.5
B14	0.64
B15	0.32
B16	0.23

Binder	ratio of amounts bound (vs GLS3000)
B17	0.26
B18	1.03
B19	0.27
B20	0.3
B21	0.22
B22	0.3
B23	0.24
B24	0.3
B25	0.26
B26	0.39
B27	1.06
B28	0.31
B29	0.3
B30	0.48
B31	0.16

From patent US20220040297A1 (Chugai, published 2022)
